Values quoted from earlier work in patent US20220280635A1, “PARTICLES FOR STIMULATING AN IMMUNE RESPONSE AGAINST VIRAL INFECTIONS” (FINNCURE OY, priority 2020, published 2022).

Target: ACE2 (Homo sapiens, UniProt Q9BYF1)
Conditions: simulation, ref [8]

ACE2, sequence (Q9BYF1 18-805): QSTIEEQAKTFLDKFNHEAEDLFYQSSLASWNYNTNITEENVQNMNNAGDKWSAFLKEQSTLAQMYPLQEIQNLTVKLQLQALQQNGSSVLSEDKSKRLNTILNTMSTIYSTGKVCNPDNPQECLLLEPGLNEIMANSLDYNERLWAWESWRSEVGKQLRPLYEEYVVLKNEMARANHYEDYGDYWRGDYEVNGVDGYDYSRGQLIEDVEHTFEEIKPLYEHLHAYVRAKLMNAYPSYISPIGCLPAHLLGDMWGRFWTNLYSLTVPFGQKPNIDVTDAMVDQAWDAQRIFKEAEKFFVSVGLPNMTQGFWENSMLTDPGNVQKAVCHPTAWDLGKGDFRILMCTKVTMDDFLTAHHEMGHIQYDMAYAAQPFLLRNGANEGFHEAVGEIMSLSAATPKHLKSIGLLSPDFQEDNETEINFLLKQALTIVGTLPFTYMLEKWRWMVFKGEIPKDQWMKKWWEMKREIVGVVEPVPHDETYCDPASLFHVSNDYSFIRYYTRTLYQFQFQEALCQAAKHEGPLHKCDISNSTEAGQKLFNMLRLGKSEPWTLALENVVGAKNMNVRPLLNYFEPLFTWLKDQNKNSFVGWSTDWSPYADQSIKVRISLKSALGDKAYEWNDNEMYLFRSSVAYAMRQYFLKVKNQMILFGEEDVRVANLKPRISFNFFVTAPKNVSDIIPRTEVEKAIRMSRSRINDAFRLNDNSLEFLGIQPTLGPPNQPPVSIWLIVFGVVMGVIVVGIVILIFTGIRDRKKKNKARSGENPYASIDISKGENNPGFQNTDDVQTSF

Row | Substance | binding affinity towards the ACE2 receptor compared with YKYRYL
1 | YKYNYI: alternative synthetic hexapeptide variant (Potential alternative synthetic hexapeptide variant) | even stronger binding affinity
2 | YKYNYL: alternative synthetic hexapeptide variant (Potential alternative synthetic hexapeptide variant) | even stronger binding affinity
